B1: PPARd: Peroxisome proliferator activated receptor δ (NR1C2), cDNA driver (protein, UniProt Q03181 1-441, looked up)
Peroxisome …: MEQPQEEAPEVREEEEKEEVAEAEGAPELNGGPQHALPSSSYTDLSRSSSPPSLLDQLQMGCDGASCGSLNMECRVCGDKASGFHYGVHACEGCKGFFRRTIRMKLEYEKCERSCKIQKKNRNKCQYCRFQKCLALGMSHNAIRFGRMPEAEKRKLVAGLTANEGSQYNPQVADLKAFSKHIYNAYLKNFNMTKKKARSILTGKASHTAPFVIHDIETLWQAEKGLVWKQLVNGLPPYKEISVHVFYRCQCTTVETVRELTEFAKSIPSFSSLFLNDQVTLLKYGVHEAIFAMLASIVNKDGLLVANGSGFVTREFLRSLRKPFSDIIEPKFEFAVKFNALELDDSDLALFIAAIILCGDRPGLMNVPRVEAIQDTILRALEFHLQANHPDAQYLFPKLLQKMADLRQLVTEHAQMMQRIKKTETETSLHPLLQEIYKDMY
B2: FXR: Farnesoid X Receptor (NR1H4), cDNA driver (protein, UniProt Q96RI1 1-486, looked up)
Bile acid receptor: MVMQFQGLENPIQISPHCSCTPSGFFMEMMSMKPAKGVLTEQVAGPLGQNLEVEPYSQYSNVQFPQVQPQISSSSYYSNLGFYPQQPEEWYSPGIYELRRMPAETLYQGETEVAEMPVTKKPRMGASAGRIKGDELCVVCGDRASGYHYNALTCEGCKGFFRRSITKNAVYKCKNGGNCVMDMYMRRKCQECRLRKCKEMGMLAECMYTGLLTEIQCKSKRLRKNVKQHADQTVNEDSEGRDLRQVTSTTKSCREKTELTPDQQTLLHFIMDSYNKQRMPQEITNKILKEEFSAEENFLILTEMATNHVQVLVEFTKKLPGFQTLDHEDQIALLKGSAVEAMFLRSAEIFNKKLPSGHSDLLEERIRNSGISDEYITPMFSFYKSIGELKMTQEEYALLTAIVILSPDRQYIKDREAVEKLQEPLLDVLQKLCKIHQPENPQHFACLLGRLTELRTFNHHHAEMLMSWRVNDHKFTPLLCEIWDVQ
B3: PXR: Pregnane X Receptor (NR1I2), cDNA driver (protein, UniProt O75469 1-434, looked up)
Nuclear receptor subfamily 1 …: MEVRPKESWNHADFVHCEDTESVPGKPSVNADEEVGGPQICRVCGDKATGYHFNVMTCEGCKGFFRRAMKRNARLRCPFRKGACEITRKTRRQCQACRLRKCLESGMKKEMIMSDEAVEERRALIKRKKSERTGTQPLGVQGLTEEQRMMIRELMDAQMKTFDTTFSHFKNFRLPGVLSSGCELPESLQAPSREEAAKWSQVRKDLCSLKVSLQLRGEDGSVWNYKPPADSGGKEIFSLLPHMADMSTYMFKGIISFAKVISYFRDLPIEDQISLLKGAAFELCQLRFNTVFNAETGTWECGRLSYCLEDTAGGFQQLLLEPMLKFHYMLKKLQLHEEEYVLMQAISLFSPDRPGVLQHRVVDQLQEQFAITLKSYIECNRPQPAHRFLFLKIMAMLTELRSINAQHTQRLLRIQDIHPFATPLMQELFGITGS
B4: CAR: Constitutive Androstane Receptor (NR1I3), cDNA driver (protein, UniProt Q14994 1-352, looked up)
Nuclear receptor subfamily 1 …: MASREDELRNCVVCGDQATGYHFNALTCEGCKGFFRRTVSKSIGPTCPFAGSCEVSKTQRRHCPACRLQKCLDAGMRKDMILSAEALALRRAKQAQRRAQQTPVQLSKEQEELIRTLLGAHTRHMGTMFEQFVQFRPPAHLFIHHQPLPTLAPVLPLVTHFADINTFMVLQVIKFTKDLPVFRSLPIEDQISLLKGAAVEICHIVLNTTFCLQTQNFLCGPLRYTIEDGARVSPTVGFQVEFLELLFHFHGTLRKLQLQEPEYVLLAAMALFSPDRPGVTQRDEIDQLQEEMALTLQSYIKGQQRRPRDRFLYAKLLGLLAELRSINEAYGYQIQHIQGLSAMMPLLQEICS
B5: RXRb: Retinoic X Receptor β (NR2B2), cDNA driver (protein, UniProt P28702 1-533, looked up)
Retinoic acid receptor …: MSWAARPPFLPQRHAAGQCGPVGVRKEMHCGVASRWRRRRPWLDPAAAAAAAVAGGEQQTPEPEPGEAGRDGMGDSGRDSRSPDSSSPNPLPQGVPPPSPPGPPLPPSTAPSLGGSGAPPPPPMPPPPLGSPFPVISSSMGSPGLPPPAPPGFSGPVSSPQINSTVSLPGGGSGPPEDVKPPVLGVRGLHCPPPPGGPGAGKRLCAICGDRSSGKHYGVYSCEGCKGFFKRTIRKDLTYSCRDNKDCTVDKRQRNRCQYCRYQKCLATGMKREAVQEERQRGKDKDGDGEGAGGAPEEMPVDRILEAELAVEQKSDQGVEGPGGTGGSGSSPNDPVTNICQAADKQLFTLVEWAKRIPHFSSLPLDDQVILLRAGWNELLIASFSHRSIDVRDGILLATGLHVHRNSAHSAGVGAIFDRVLTELVSKMRDMRMDKTELGCLRAIILFNPDAKGLSNPSEVEVLREKVYASLETYCKQKYPEQQGRFAKLLLRLPALRSIGLKCLEHLFFFKLIGDTPIDTFLMEMLEAPHQLA
B6: RXRg: Retinoic X Receptor γ (NR2B3), cDNA driver (protein, UniProt P48443 1-463, looked up)
Retinoic acid receptor …: MYGNYSHFMKFPAGYGGSPGHTGSTSMSPSAALSTGKPMDSHPSYTDTPVSAPRTLSAVGTPLNALGSPYRVITSAMGPPSGALAAPPGINLVAPPSSQLNVVNSVSSSEDIKPLPGLPGIGNMNYPSTSPGSLVKHICAICGDRSSGKHYGVYSCEGCKGFFKRTIRKDLIYTCRDNKDCLIDKRQRNRCQYCRYQKCLVMGMKREAVQEERQRSRERAESEAECATSGHEDMPVERILEAELAVEPKTESYGDMNMENSTNDPVTNICHAADKQLFTLVEWAKRIPHFSDLTLEDQVILLRAGWNELLIASFSHRSVSVQDGILLATGLHVHRSSAHSAGVGSIFDRVLTELVSKMKDMQMDKSELGCLRAIVLFNPDAKGLSNPSEVETLREKVYATLEAYTKQKYPEQPGRFAKLLLRLPALRSIGLKCLEHLFFFKLIGDTPIDTFLMEMLETPLQIT

Tested on: mDio1 promoter
Test: NHR-promoter luciferase screen, mDio1 promoter
Assay type: cell-based, mouse
Conditions: Dio1; HR component without or with its ligand
In short: (§1)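 CV-1 cells were co-transfected with 50 ng NHR (homodimer or NHR/RXR heterodimer), 100 ng promoter-luciferase construct and 50 ng LacZ. Luciferase was normalized to LacZ and to a no-NHR/no-ligand control.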

Molecule | Luc. act., normalized to lacZ | Normalized Luc. act., normalized to control
B1 | 10.0 | 2.2
B2 | 7.2 | 1.6
B3 | 11.3 | 2.5
B4 | 4.5 | 1.0
B5 | 4.4 | 1.0
B6 | 6.6 | 1.5

Same assay, conditions: transcription factor +/- ligand; control = 1.00

Molecule | mDio1 promoter reporter activity
B1 | 2.23
B2 | 1.62
B3 | 2.52
B4 | 1.01
B5 | 0.99
B6 | 1.48

Tested on: RevErba promoter
Test: NHR-promoter luciferase screen, RevErba (RVRa) promoter
Assay type: cell-based
Set-up: key to mRevErba promoter reporter activity / Normalized Luc. act., normalized to control: luciferase activity normalized to lacZ and to control (no NHR/ligand)
Conditions: RVRa promoter; HR component without or with ligand
In short: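 CV-1 cells co-transfected with NHR (pcDNA3.1, C-terminal V5H6 tag) as homodimer or RXR heterodimer, RevErbα promoter–luciferase reporter and LacZ transfection control; ligand added where applicable. Luciferase normalized to LacZ and to no-NHR/no-ligand control.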

Molecule | Luc. act., normalized to lacZ | Normalized Luc. act., normalized to control
B1 | 25.3 | 0.9
B2 | 31.7 | 1.1
B3 | 42.5 | 1.5
B4 | 40.00 | 1.4
B5 | 17.38 | 0.6
B6 | 24.64 | 0.9

Same assay, conditions: RVRa promoter; given only where activity is below control

Molecule | negative reciprocal of normalized Luc. act. (fold repression; Table 33)
B1 | −1.106
B5 | −1.609
B6 | −1.135

Same assay, conditions: RVRa promoter; log10 of activity normalized to control

Molecule | normalized Luc. act. on a logarithmic scale (column without head, Table 33)
B1 | −0.04
B2 | 0.05
B3 | 0.18
B4 | 0.16
B5 | −0.21
B6 | −0.05

Same assay, conditions: transcription factor +/- ligand; control = 1.00

Molecule | mRevErba promoter reporter activity
B1 | 0.90
B2 | 1.13
B3 | 1.52
B4 | 1.43
B5 | 0.62
B6 | 0.88

Tested on: mPOMC promoter
Test: NHR-promoter luciferase screen, mPOMC promoter
Assay type: cell-based, mouse
Conditions: Table 6d; luciferase activity relative to control (control = 1.00)
In short: as §1

Molecule | Results of assays of transcription factor (+/- ligand) with mPOMC
B1 | 1.02
B2 | 1.20
B3 | 1.30
B4 | 0.92
B5 | 1.19
B6 | 1.06

Same assay, conditions: mPOMC promoter; HR component with or without ligand

Molecule | Luc. act., normalized to lacZ
B1 | 70.0
B2 | 82.5
B3 | 89.4
B4 | 63.8
B5 | 81.8
B6 | 73.2

Same assay, conditions: mPOMC promoter; HR component with or without ligand; relative to control

Molecule | Normalized Luc. act., normalized to control
B1 | 1.0
B2 | 1.2
B3 | 1.3
B4 | 0.9
B5 | 1.2
B6 | 1.1

Tested on: mCAR promoter
Test: NHR-promoter luciferase screen, mCAR promoter
Assay type: cell-based, mouse
Conditions: mCAR promoter-luciferase, CV-1 cells, NHR +/- ligand, control = 1.00
In short: as §1

Molecule | luciferase activity normalized to lacZ activity and to a control, mCAR
B1 | 0.79
B2 | 0.88
B3 | 1.49
B4 | 0.51
B5 | 1.27
B6 | 1.25

Same assay, conditions: mCAR promoter; HR/ligand component

Molecule | Luc. act., normalized to lacZ | Normalized Luc. act., normalized to control
B1 | 30.1 | 0.8
B2 | 33.6 | 0.9
B3 | 56.8 | 1.5
B4 | 19.41 | 0.5
B5 | 48.6 | 1.3
B6 | 47.5 | 1.2

Tested on: mDio2 promoter
Test: NHR-promoter luciferase screen, mDio2 promoter
Assay type: cell-based, mouse
Conditions: Dio2; HR component without or with its ligand
In short: as §1

Molecule | Luc. act., normalized to lacZ | Normalized Luc. act., normalized to control
B1 | 19.1 | 1.2
B2 | 20.2 | 1.3
B3 | 32.7 | 2.1
B4 | 18.4 | 1.2
B5 | 22.8 | 1.5
B6 | 27.8 | 1.8

Same assay, conditions: transcription factor +/- ligand; control = 1.00

Molecule | mDio2 promoter reporter activity
B1 | 1.21
B2 | 1.29
B3 | 2.08
B4 | 1.17
B5 | 1.45
B6 | 1.77

Source: US20110263454A1, “Methods of Identifying Functional Characteristics of Promoters, Transcription Modifying Proteins and Transcription Modulating Agents” (Salk Institute for Biological Studies, priority 2008, published 2011)
